Data published in publication PMC11079029, “Intramolecular autoinhibition regulates the selectivity of PRPF40A tandem WW domains for proline-rich motifs” (Nature Communications, 2024).

B1: FAM120A (protein, UniProt Q9NZB2 1-1118, looked up)
Constitutive coactivator of …: MGVQGFQDYIEKHCPSAVVPVELQKLARGSLVGGGRQRPPQTPLRLLVDADNCLHRLYGGFYTDWVSGGQWNHMLGYLAALAKACFGGNIELFVFFNGALEKARLHEWVKRQGNERQTAQQIVSHVQNKGTPPPKVWFLPPVCMAHCIRLALIRFHVKVAQSIEDHHQEVIGFCRENGFHGLVAYDSDYALCNIPYYFSAHALKLSRNGKSLTTSQYLMHEVAKQLDLNPNRFPIFAALLGNHILPDEDLASFHWSLLGPEHPLASLKVRAHQLVLPPCDVVIKAVADYVRNIQDTSDLDAIAKDVFQHSQSRTDDKVIRFKRAIGYYSATSKPMSFHPPHYLAARPGPFGMPGMVPPHVPPQMLNIPQTSLQAKPVAPQVPSPGGAPGQGPYPYSLSEPAPLTLDTSGKNLTEQNSYSNIPHEGKHTPLYERSSPINPAQSGSPNHVDSAYFPGSSTSSSSDNDEGSGGATNHISGNKIGWEKTGSHSEPQARGDPGDQTKAEGSSTASSGSQLAEGKGSQMGTVQPIPCLLSMPTRNHMDITTPPLPPVAPEVLRVAEHRHKKGLMYPYIFHVLTKGEIKIAVSIEDEANKDLPPAALLYRPVRQYVYGVLFSLAESRKKTERLAFRKNRLPPEFSPVIIKEWAAYKGKSPQTPELVEALAFREWTCPNLKRLWLGKAVEDKNRRMRAFLACMRSDTPAMLNPANVPTHLMVLCCVLRYMVQWPGARILRRQELDAFLAQALSPKLYEPDQLQELKIENLDPRGIQLSALFMSGVDMALFANDACGQPIPWEHCCPWMYFDGKLFQSKLLKASREKTPLIDLCDGQADQAAKVEKMRQSVLEGLSFSRQSHTLPFPPPPALPFYPASAYPRHFGPVPPSQGRGRGFAGVCGFGGPYGETVATGPYRAFRVAAASGHCGAFSGSDSSRTSKSQGGVQPIPSQGGKLEIAGTVVGHWAGSRRGRGGRGPFPLQVVSVGGPARGRPRGVISTPVIRTFGRGGRYYGRGYKNQAAIQGRPPYAASAEEVAKELKSKSGESKSSAMSSDGSLAENGVMAEEKPAPQMNGSTGDARAPSHSESALNNDSKTCNTNPHLNALSTDSACRREAALEAAVLNKEE
B2: NKRF (protein, UniProt O15226 1-690, looked up)
NF-kappa-B-repressing factor: MEKILQMAEGIDIGEMPSYDLVLSKPSKGQKRHLSTCDGQNPPKKQAGSKFHARPRFEPVHFVASSSKDERQEDPYGPQTKEVNEQTHFASMPRDIYQDYTQDSFSIQDGNSQYCDSSGFILTKDQPVTANMYFDSGNPAPSTTSQQANSQSTPEPSPSQTFPESVVAEKQYFIEKLTATIWKNLSNPEMTSGSDKINYTYMLTRCIQACKTNPEYIYAPLKEIPPADIPKNKKLLTDGYACEVRCQNIYLTTGYAGSKNGSRDRATELAVKLLQKRIEVRVVRRKFKHTFGEDLVVCQIGMSSYEFPPALKPPEDLVVLGKDASGQPIFNASAKHWTNFVITENANDAIGILNNSASFNKMSIEYKYEMMPNRTWRCRVFLQDHCLAEGYGTKKTSKHAAADEALKILQKTQPTYPSVKSSQCHTGSSPRGSGKKKDIKDLVVYENSSNPVCTLNDTAQFNRMTVEYVYERMTGLRWKCKVILESEVIAEAVGVKKTVKYEAAGEAVKTLKKTQPTVINNLKKGAVEDVISRNEIQGRSAEEAYKQQIKEDNIGNQLLRKMGWTGGGLGKSGEGIREPISVKEQHKREGLGLDVERVNKIAKRDIEQIIRNYARSESHTDLTFSRELTNDERKQIHQIAQKYGLKSKSHGVGHDRYLVVGRKRRKEDLLDQLKQEGQVGHYELVMPQAN
B3: LARP7 (protein, UniProt Q4G0J3 1-582, looked up)
La-related protein 7: METESGNQEKVMEEESTEKKKEVEKKKRSRVKQVLADIAKQVDFWFGDANLHKDRFLREQIEKSRDGYVDISLLVSFNKMKKLTTDGKLIARALRSSAVVELDLEGTRIRRKKPLGERPKDEDERTVYVELLPKNVNHSWIERVFGKCGNVVYISIPHYKSTGDPKGFAFVEFETKEQAAKAIEFLNNPPEEAPRKPGIFPKTVKNKPIPALRVVEEKKKKKKKKGRMKKEDNIQAKEENMDTSNTSISKMKRSRPTSEGSDIESTEPQKQCSKKKKKRDRVEASSLPEVRTGKRKRSSSEDAESLAPRSKVKKIIQKDIIKEASEASKENRDIEISTEEEKDTGDLKDSSLLKTKRKHKKKHKERHKMGEEVIPLRVLSKSEWMDLKKEYLALQKASMASLKKTISQIKSESEMETDSGVPQNTGMKNEKTANREECRTQEKVNATGPQFVSGVIVKIISTEPLPGRKQVRDTLAAISEVLYVDLLEGDTECHARFKTPEDAQAVINAYTEINKKHCWKLEILSGDHEQRYWQKILVDRQAKLNQPREKKRGTEKLITKAEKIRLAKTQQASKHIRFSEYD

test system: GFP-tagged PRPF40A-Nter-MUT; assay: SILAC GFP-immunoprecipitation with quantitative mass spectrometry, mutant construct; assay type: binding, human (Hela cells); details: quantitative MS, Hela cells, protein by gene name
In short: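 GFP-tagged PRPF40A N-terminal region (isoform 2, residues 1–221) with PPVP/PALPP motifs mutated to alanines, transiently expressed 24 h in SILAC-labelled HeLa cells alongside GFP control. Lysates (2.5 mg) pulled down on GFP-nanobody beads 1 h at 4 °C; pooled eluates trypsin-digested and quantified by LC-MS/MS on Orbitrap.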

| Molecule | Immunoprecipitation enrichment MUT vs WT, log2 FC |
| --- | --- |
| B1 | 1.247 |
| B2 | 1.452 |
| B3 | 1.221 |
